From patent publication US20090010925 (published 2009) come the findings set out here.

The chains are these.
T1: VEGF(8-109) (human, UniProt P15692)
T1 chain: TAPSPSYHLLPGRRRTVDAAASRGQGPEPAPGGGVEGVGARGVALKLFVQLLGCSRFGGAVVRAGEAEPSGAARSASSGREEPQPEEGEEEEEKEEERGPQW

B1: Y0313-2 (antibody, V domains shown)
VH: EVQLVESGGGLVQPGGSLRLSCAASGYDFTHYGMNWVRQAPGKGLEWVGWINTYTGEPTYAADFKRRFTFSLDTSKSTAYLQMNSLRAEDTAVYYCAKYPHYYVNERKSHWYFDVWGQGTL
VL: DIQLTQSPSSLSASVGDRVTITCRANEQLSNYLNWYQQKPGKAPKVLIYFTSSLHSGVPSRFSGSGSGTDFTLTISSLQPEDFATYYCQQYSTVPWTFGQGTKVEIKR
B2: Y0242-1 (antibody, V domains shown)
VH: EVQLVESGGGLVQPGGSLRLSCAASGYTFTNYGMNWVRQAPGKGLEWVGWINTWTGEPTYAADFKRRFTFSLDTSKSTAYLQMNSLRAEDTAVYYCAKYPHYYGSSHWYFDVWGQGTL
VL: DIQLTQSPSSLSASVGDRVTITCRANEQLSNYLNWYQQKPGKAPKVLIYFTSSLHSGVPSRFSGSGSGTDFTLTISSLQPEDFATYYCQQYSTVPWTFGQGTKVEIKR
B3: Y0241-6 (antibody, V domains shown)
VH: EVQLVESGGGLVQPGGSLRLSCAASGYDYTNYGINWVRQAPGKGLEWVGWINTYTGEPTYAADFKRRFTFSLDTSKSTAYLQMNSLRAEDTAVYYCAKYPHYYGSSHWYFDVWGQGTL
VL: DIQLTQSPSSLSASVGDRVTITCRANEQLSNYLNWYQQKPGKAPKVLIYFTSSLHSGVPSRFSGSGSGTDFTLTISSLQPEDFATYYCQQYSTVPWTFGQGTKVEIKR
B4: Y0239-12 (antibody, V domains shown)
VH: EVQLVESGGGLVQPGGSLRLSCAASGYTFTNYGMNWVRQAPGKGLEWVGWINTYTGEPTYAADFKRRFTFSLDTSKSTAYLQMNSLRAEDTAVYYCAKYPHYYAHEKKSHWYFDVWGQGTL
VL: DIQLTQSPSSLSASVGDRVTITCRANEQLSNYLNWYQQKPGKAPKVLIYFTSSLHSGVPSRFSGSGSGTDFTLTISSLQPEDFATYYCQQYSTVPWTFGQGTKVEIKR
B5: Y0239-19 (antibody, V domains shown)
VH: EVQLVESGGGLVQPGGSLRLSCAASGYTFTNYGMNWVRQAPGKGLEWVGWINTYTGEPTYAADFKRRFTFSLDTSKSTAYLQMNSLRAEDTAVYYCAKYPHYYVNERKSHWYFDVWGQGTL
VL: DIQLTQSPSSLSASVGDRVTITCRANEQLSNYLNWYQQKPGKAPKVLIYFTSSLHSGVPSRFSGSGSGTDFTLTISSLQPEDFATYYCQQYSTVPWTFGQGTKVEIKR
B6: Y0241-7 (antibody, V domains shown)
VH: EVQLVESGGGLVQPGGSLRLSCAASGYDWTNYGINWVRQAPGKGLEWVGWINTYTGEPTYAADFKRRFTFSLDTSKSTAYLQMNSLRAEDTAVYYCAKYPHYYGSSHWYFDVWGQGTL
VL: DIQLTQSPSSLSASVGDRVTITCRANEQLSNYLNWYQQKPGKAPKVLIYFTSSLHSGVPSRFSGSGSGTDFTLTISSLQPEDFATYYCQQYSTVPWTFGQGTKVEIKR
B7: Y0261-6 (antibody, V domains shown)
VH: EVQLVESGGGLVQPGGSLRLSCAASGYTFTNYGMNWVRQAPGKGLEWVGWINTYTGEPTYAADFKRRFTFSLDTSKSTAYLQMNSLRAEDTAVYYCAKYPHYYLKDKKSHWYFDVWGQGTL
VL: DIQLTQSPSSLSASVGDRVTITCRANEQLSNYLNWYQQKPGKAPKVLIYFTSSLHSGVPSRFSGSGSGTDFTLTISSLQPEDFATYYCQQYSTVPWTFGQGTKVEIKR
B8: Y0239-2 (antibody, V domains shown)
VH: EVQLVESGGGLVQPGGSLRLSCAASGYTFTNYGMNWVRQAPGKGLEWVGWINTYTGEPTYAADFKRRFTFSLDTSKSTAYLQMNSLRAEDTAVYYCAKYPHYYKNDKSSHWYFDVWGQGTL
VL: DIQLTQSPSSLSASVGDRVTITCRANEQLSNYLNWYQQKPGKAPKVLIYFTSSLHSGVPSRFSGSGSGTDFTLTISSLQPEDFATYYCQQYSTVPWTFGQGTKVEIKR
B9: Y0240-1 (antibody, V domains shown)
VH: EVQLVESGGGLVQPGGSLRLSCAASGYTFTNYGMNWVRQAPGKGLEWVGWINTYTGEPTYAADFKRRFTFSLDTSKSTAYLQMNSLRAEDTAVYYCAKYPHYYLTDHKSHWYFDVWGQGTL
VL: DIQLTQSPSSLSASVGDRVTITCRANEQLSNYLNWYQQKPGKAPKVLIYFTSSLHSGVPSRFSGSGSGTDFTLTISSLQPEDFATYYCQQYSTVPWTFGQGTKVEIKR

The test has as its target T1, VEGF(8-109). The test can be described thus: SPR, 25C. (SPR reads the build-up and loss of mass on a sensor chip optically.)
By Kd is commonly meant the equilibrium constant for the complex coming apart. A high value points to weaker binding. Turning to B1, the Kd is 0.36 nM.
The molecule B2 showed a Kd of 1.8 nM.
The value for B3 was 2.7 nM; that for B4 was 0.6 nM; that for B5 was 0.3 nM.
The value for B6 was 3 nM; that for B7 was 0.6 nM.
On to B8, for which the Kd worked out at 4.6 nM.
Molecule B9 came in with a Kd of 0.5 nM.
